Measured values: US20160297851A1, “BROAD SPECTRUM […]” (priority 2012, published 2016)

Experiments:
[1] = molecular target: full-length P29S mutant of S. aureus SPase (His6x-tagged SpsB(P29S)) (Staphylococcus aureus); assay: steady-state increase of arylomycin fluorescence (ex 320 nm, em 410 nm) on binding full-length S. aureus SPase P29S
[2] = molecular target: full-length P29S mutant of S. aureus SPase (His6x-tagged SpsB(P29S)) (Staphylococcus aureus); assay: steady-state binding by increase of arylomycin fluorescence; full-length His-tagged S. aureus SPase, buffer with 10% glycerol
[3] = molecular target: full-length wild type S. aureus SPase (His6x-tagged SpsB) (Staphylococcus aureus); assay: as above
[4] = molecular target: full-length wild type S. aureus SPase (His6x-tagged SpsB) (Staphylococcus aureus); assay: steady-state increase of arylomycin fluorescence (ex 320 nm, em 410 nm) on binding full-length wild type S. aureus SPase
[5] = molecular target: P84S variant of the truncated E. coli SPase (Δ2-75) (Escherichia coli) (UniProt P00803); assay: steady-state binding by increase of arylomycin fluorescence (ex 320 nm, em 410 nm); truncated SPase in n-octyl-β-glucopyranoside micelles
[6] = molecular target: P84S variant of the truncated E. coli SPase (Δ2-75) (Escherichia coli) (UniProt P00803); assay: steady-state increase of arylomycin fluorescence (ex 320 nm, em 410 nm) on binding the soluble N-terminally truncated (delta 2-75) E. coli SPase P84S

arylomycin C16 (peptide)
EC50 (read off the curve) [1]: 200 nM | Kd [2]: 130 nM | Kd [3]: 1280 nM | EC50 (read off the curve) [4]: 2000 nM | Kd [5]: 39 nM | EC50 (read off the curve) [6]: 90 nM
